The supplement of paper PMC10567573

B1: KCNA4 (parent)
chain: YQLGEEALLKFREDEGFVREEEDR

Variants of: B1
Test: protein stability index of a GFP-peptide fusion (GPS, HEK-293T) (PSI 1-6); higher = more stable
Details: c terminus: a fixed tail appended
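Further: lentivirally expressed fusions sorted by FACS into six bins by GFP to DsRed ratio, PSI derived from sequencing read proportions per bin multiplied by bin number.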

Protein stability index of substitutions, site by site:
D23: V 3.7; Q 4.04; L 3.97; E 4.75; G 3.88; W 3.51; H 3.94; N 4.05; P 3.82; T 4.11
F11: C 4.63; S 5.44; K 5.48; N 5.75; R 5.8; G 5.61; Q 5.1; D 5.83; H 5.21; E 5.67; T 5.27; P 5.57; M 4.44; Y 5.46; V 5.35; I 5.12
E13: W 2.39; G 3.71; T 4.43; S 3.37; P 4.22; K 4; A 3.23; Y 4.02; H 3.96; N 4.5; M 3.84; C 2.42
R12: D 5.54; W 2.34; N 5.17; Q 4.59; F 4.62; G 5.08; V 3.81; H 4.75; M 4.06; L 4.4; A 4.41; K 4.92; Y 4.59
A7: H 4.56; E 4.38; N 4.82; Q 4.1; Y 4.27; L 4.8; T 4.95; W 1.48; S 4.52; R 4.62; G 4.64; D 4.23; K 5.36; C 4.89; F 4.43; V 4.33; M 4.14
E15: D 4.15; L 3.88; P 3.99; F 3.83; W 3.84; Y 4.3; C 3.86; T 3.73; K 4.16; V 3.8; A 3.83; N 4.42; R 4.15; H 3.87; G 4.42; Q 4.4; I 3.83; M 3.96
E5: R 3.48; I 3.55; H 3.76; Q 3.92; A 3.65; C 4.32; K 3.3; T 4.2; D 4.97; F 2.93; P 4.11; N 4.22
V18: G 4.43; F 4.36; M 4.58; I 4.5; Q 4.78; P 4.63; R 4.04; D 4.83; K 4.13; N 4.82; H 4.36; E 4.67; L 4.44; Y 4.63
K10: C 3.37; E 5.37; S 4.43; D 5.55; Q 4.83; G 5.52; N 5.07; Y 3.94; F 1.64; I 3.35; M 3.59; L 3.1; R 4.09; A 4.01; P 5.59; H 4.74
R24: L 4.54; E 5.1; W 4.53; K 4.66; N 4.72; S 4.65; A 4.69; H 4.83; G 4.79; T 4.71; V 4.73; Y 4.42; C 4.21
E6: A 4.31; C 3.51; L 3.32; F 2.4; G 4.32; Q 4.23; M 3.99; T 4.32; R 3.46; K 4; V 2.93; D 4.67; Y 3.04
Q2: L 4.24; F 4.15; M 4.79; S 5.61; D 5.62; A 5.36; G 5.23; H 2.94; I 4.43; V 4.21; P 5.15; W 4.19; R 5.09
R19: W 4.4; I 4.36; E 4.91; D 4.76; C 4.91; H 4.77; L 4.46; Q 4.42; F 4.87; M 4.62; V 4.59; T 4.65; Y 4.51
G4: E 5.77; R 4.56; K 5.34; P 5.03; Y 4.57; C 4.51; V 5.11; T 4.12; N 4.28; M 5.27; H 4.8; F 4.28; I 4.83; A 5.24
E20: G 3.93; L 3.9; Y 3.71; V 4.14; S 4.45; M 4.06; N 4.61; P 4.3; W 3.56; H 4.49; T 4.56; Q 4.44; K 4.13; R 4.1; D 4.38; F 3.64; C 4.05
L3: C 4.38; A 5.22; R 4.75; D 5.85; E 5.67; H 5.22; G 4.53; T 5.31; Y 5.23; I 5.12; N 5.68; Q 5.62; M 3.76; W 3.89
D14: A 3.32; Q 3.88; L 4.08; C 4; S 3.56; K 3.45; T 3.98; V 3.39; N 3.98; Y 3.59; F 3.78; H 3.64; E 4.18; R 3.58; W 2.81; M 4.27
L9: G 5.03; A 4.88; Q 4.9; F 4.36; W 4.01; T 5.15; Y 5.09; S 5.05; R 4.41; K 4.57; M 4.84; N 4.17
E22: W 4.01; S 4.02; Q 4.25; F 3.82; G 4.23; R 3.95; A 4.75; D 4.65; L 3.99; Y 3.58; C 4.32; H 4.37; P 4.16; V 4.13; K 3.99
G16: D 5.21; H 4.8; S 4.75; Q 4.73; I 4.61; R 4.08; Y 4.04; F 4.31; L 4.85; A 4.65; P 4.62; N 4.47; W 4.12
E21: F 4.06; S 4.71; L 3.07; A 4.45; H 4.18; V 4.29; N 4; W 3.5; Y 4; T 4.38; K 4.08; M 4.21; P 4.65; Q 4.21
F17: D 4.81; A 4.78; P 4.9; G 4.01; C 4.88; W 4.59; Y 4.86; T 4.5; L 4.61; E 4.79; N 4.68; I 4.3; Q 4.5; K 4.51
Y1: R 5.81; C 5.21; A 5.7; M 5.47; N 5.67; V 5.58; F 4.45; Q 5.41; E 5.74; G 5.95; P 5.63; L 4.96; H 5.47
L8: R 5.13; W 3.55; N 5.5; I 5.21; P 5.13; T 4.88; H 5.62; G 5.48; E 5.5; V 5.58; A 4.93; Q 5.65
